Measurements: US20060062793A1, “Modified antibodies to prostate-specific membrane antigen and uses thereof” (priority 2004, published 2006)

Tests used:
[1] = tested on: PSMA-positive human LNCaP tumors; assay: Biodistribution of 111In labeled MAbs in nude mice bearing LNCaP tumors; format: in vivo, mouse
Procedure: Prior to use, the cells were trypsinized, counted and suspended in Matrigel (Collaborative Biomedical Products, Bedford, Mass.). Nu/Nu Balb C mice 8-10 weeks of age were inoculated, in the right and left flanks, with a suspension of 5×10^6 LNCaP cells in Matrigel (BD Biosciences, Bedford Mass.). After a period of 14-18 days, tumors (100-300 mg) had developed. The PSMA-negative DU145 and PC3 cells were implanted in nude mice in an identical manner.
The PSMA-positive and PSMA-negative tumor bearing mice were injected, via the tail vein, with 80 KBq of the iodinated MAb (400 MBq/mg) in 200 μL of PBS (pH 7.4, 0.2% BSA). Groups of animals (3-8/group) were sacrificed after 2, 4 or 6 days. The major organs and tumors were recovered. The tissue samples were weighed and counted, with appropriate standards in an automatic NaI(Tl) counter. These measured relative activity data (cpm) were background corrected and expressed as a percentage of the injected dose per gram (% ID/g). […] J415, J591 and 7E11 were labeled with ^111In (100 MBq/mg). 80 KBq of the ^111In labeled MAbs were injected in groups of animals. The % ID/g in various organs and tumor tissues was determined at 2-6 days post injection in a similar way as described for ^131I labeled MAbs.

[2] = tested on: recurrent, progressing prostate cancer; assay: Phase I trial of four weekly doses of 111In-DOTA-deJ591; parameters: species or system human; conditions: human, in vivo
Procedure: Patients with recurrent, progressing prostate cancer received four weekly doses of ^111In-DOTA-deJ591. Doses were escalated in cohorts of three patients and ranged from 62.5-500 mg/m2 (total). […] After the first dose, patients were imaged on the day of injection (day 0) and days 1, 2, 4 and 7.
Serum PK, immune reaction and toxicity were evaluated after each dose for a minimum of 12 weeks.

[3] = tested on: hormone-refractory prostate cancer metastases; assay: Nuclear imaging with 111In or 177Lu labeled deJ591 versus standard imaging; format: in vivo, human
Procedure: The antibody scans were compared to standard imaging studies (bone, CT or MR scans) obtained on each patient to assess the underlying sensitivity, specificity, and accuracy of deJ591 targeting to metastatic sites. Bony and soft tissue metastases were evaluated independently.

[4] = tested on: vascular endothelium of solid tumors; assay: Phase I trial of 111In-DOTA-deJ591 in refractory non-prostate solid tumors; format: in vivo, human
From the text: Eligible patients were those with refractory solid tumor malignancies whose tumor types are known to express PSMA on the neovasculature.
Patients the participated in the study included eight renal cell cancer patients, four bladder cancer patients, two colon cancer patients, and one pancreas cancer patient.

[5] = Pharmacokinetics of deJ591 and deJ591-DM1 in cynomolgus monkeys; format: in vivo; conditions: Monkey, male & female
prostate cancer = conditions: after each radiolabeled dose over five months
From the text: Dose twelve was radiolabeled with a therapeutic quantity of ^90Yttrium (19 mCi) calculated to deliver less than a 150 rad dose to the blood.

LNCaP tumor xenografts = assay: Murine J591-DM1 immunoconjugate in BALB/c mice with LNCaP xenografts; format: in vivo, mouse; conditions: unconjugated, equimolar, intraperitoneal qday x 5 days
Procedure: Tumor xenografts of LNCaP cells were established in the right flank of BALB/c mice (5×10^6 cells injected subcutaneously). Animals were observed until tumors were visible (7-10 mm). Animals were then treated with PBS, unconjugated mAb J591, unconjugated DM1, both mAb J591 and DM1 but unconjugated, and J591-DM1 immunoconjugate (100, 200, 300, and 400 mcg/day intraperitoneal qday×5 days). The mAb J591 was modified to introduce dithiopyridyl groups and then conjugated to DM1 via a hindered disulfide bond, as described above. Unconjugated mAb J591 and DM1 were given in equimolar concentrations.
Tumor xenografts of both LNCaP cells (5×10^6 cells injected subcutaneously in the right flank) and PC3 cells (3×10^6 cells injected subcutaneously in the left flank) were established in BALB/c mice. Animals were observed until LNCaP tumors were visible (PC3 tumors were present but much smaller). Animals treated with J591-DM1 immunoconjugate: 300 mcg/day intraperitoneal qday×5 days
Tumor xenografts of LNCaP cells were established subcutaneously in the right flank of BALB/c mice. […]
All animals were photographed pre- and post-treatment and tagged for identification. Tumor volume was determined (length×width×depth) and closely followed. […]

[6] = tested on: androgen-independent PSMA-positive 22RV1 xenograft; assay: deJ591-DM1 efficacy in castrate or intact scid mice bearing 22RV1 xenograft; format: in vivo, mouse
Procedure: Prostate tumors can be broadly classified as either androgen-dependent or androgen-independent. […] The 22RV1 cell line was originally developed as androgen-independent and can be grown as a xenograft in C.B-17 scid mice that have been left either intact or castrated. […] This was approximately twice the time required for the tumors of intact mice to reach 1000 mm^3 (9.3 days). C.B-17 scid mice bearing CWR22 xenografts approximately 200 mm^3 in size received IV injections (200 μL constant volume) of the test articles according to the dosage and schedule shown in the Table 24.

CD-1 mice = assay: Single IV administration toxicity of deJ591-DM1 and DM1 in CD-1 mice; format: in vivo, mouse

Compound	tumor uptake over time [1]	plasma half-life [2]	negative mAb scans in patients without documented soft tissue metastases ([3]; fifteen patients) [%]	specificity, bone ([3]; seven patients with negative bone scans) [%]	Liver uptake ([4]; 5 mg)	Plasma clearance (T1/2) ([4]; 5 mg) [h]	Liver uptake ([4]; 10 mg)	Plasma clearance (T1/2) ([4]; 10 mg) [h]	Liver uptake ([4]; 20 mg)	Plasma clearance (T1/2) ([4]; 20 mg) [h]	Total deJ591 AUC ([5]; 6 mg/kg (72 mg/m^2), study KLA W-171) [µg·h/mL]	Total deJ591 AUC ([5]; 10 mg/kg (120 mg/m^2), study CTBR 57355) [µg·h/mL]	tumor localization to known tumor sites (prostate cancer)	mortality (LNCaP tumor xenografts)	Relative TGD ([6]; Castrate mice, 240 μg/kg DM1-equivalents, q3dX5)	change in growth delay for castrate mice relative to androgen-intact mice ([6]; q3dx5) [fold]	toxicity compared with deJ591-DM1 at equimolar dosages (CD-1 mice)
deJ591	gradually increased with time and is quite similar to that of 7E11	varied with dose	100	100	28%±14%	21 ± 11	17%±7%	24 ± 6	13%±5%	37 ± 8	25200	49400	excellent				
COc1cc2cc(c1Cl)N(C)C(=O)C[C@H](OC(=O)[C@H](C)N(C)C(=O)CCS)[C@]1(C)O[C@H]1[C@H](C)[C@@H]1C[C@@](O)(NC(=O)O1)[C@H](OC)/C=C/C=C(\C)C2 [DM1, reference compound]														died within 48 hours of treatment completion	1.4	1.4	tended to be less toxic than deJ591-DM1 at lower dosages
